Laboratory results reported in patent US7144986B2, “Polypeptides comprising IL-6 ligand binding receptor domains” (The United States of America as represented by the …, priority 1999, dated 2006).

What follows are substances tested against recombinant human IL-6 (Homo sapiens, UniProt P05231) (assay: Binding of radioiodinated recombinant human IL-6 to synthetic peptide arrays in 96-well microtiter plates). Settings: Example 1, domain I peptides (IL-6 receptor residues 66–86): truncations and alanine replacements; radiolabeled IL-6 remaining after wash.
recombinant human IL-6, sequence (P05231 30-212): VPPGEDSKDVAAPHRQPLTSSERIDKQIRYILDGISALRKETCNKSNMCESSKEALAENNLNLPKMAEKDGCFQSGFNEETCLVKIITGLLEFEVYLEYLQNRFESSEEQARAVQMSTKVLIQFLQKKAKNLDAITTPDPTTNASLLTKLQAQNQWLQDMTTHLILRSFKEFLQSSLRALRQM
Method: Synthetic peptide arrays were constructed in 96-well microtiter plates in accordance with the method set forth in WO 91/02714 (Saxinger), and used to test the binding of recombinant human IL-6 that had been labeled with radioactive iodine (radiolabeling by standard methods). After incubating the radiolabeled IL-6 ligand in a well with each synthetic peptide, a washing step was performed to remove unbound label, and the relative level of radioactivity remaining in each well of the plate was evaluated to determine the relative affinity of each peptide for IL-6 ligand.
Each of the four binding domains was analyzed in detail, which is set forth in these examples. First, serial truncations (or nested truncations) were performed from each end of the peptides to determine the location of the critical binding residues within each domain. Second, each amino acid residue in the critical regions of each domain were serially replaced by an alaninyl residue to indicate whether the side-chain of the residue at each particular location is likely to be essential or important to the mechanism of binding.
This example employs essentially the same techniques as Examples 1–4 except that fragments of the β-chain of the IL-6 receptor are used. As is known in the art, the β-chain is shared by multiple receptors. Thus, the identified fragments here are effective inhibitors of a multiplicity of binding reactions in addition to the IL-6 ligand:IL-6 receptor interaction.
With AAGSHPSRWAGMGRRL [Peptide A6] the Counts/minute bound was 1753 Counts/minute.
In the case of AAGSHPSRWAGMGRRLLLRSV [Peptide A1], the Counts/minute bound was 10739 Counts/minute.
With AAGSHPSRWAGMGRRLLLRSV [Peptide A17] the Counts/minute bound was 10884 Counts/minute.
AAGSHPSRWAGMGRRLLLRSV [Peptide A33] gave a Counts/minute bound of 10213 Counts/minute.

Same assay, conditions: Example 2, domain II peptides (IL-6 receptor residues 136–156): truncations and alanine replacements
Work on PRSTPSLTTKAVLL [Peptide B8] yielded a Counts/minute bound of 1846 Counts/minute.
Work on PRSTPSLTTKAVLLVRKFQNS [Peptide B1] yielded a Counts/minute bound of 10790 Counts/minute.
Substance PRSTPSLTTKAVLLVRKFQNS [Peptide B17] has a Counts/minute bound of 12347 Counts/minute.
With PRSTPSLTTKAVLLVRKFQNS [Peptide B33] the Counts/minute bound was 11699 Counts/minute.
In the case of TKAVLLVRKFQNS [Peptide B25], the Counts/minute bound was 5753 Counts/minute.
For TKAVLLVRKFQNS [Peptide B26], the Counts/minute bound was 5226 Counts/minute.

Same assay, conditions: Example 3, domain III peptides (IL-6 receptor residues 246–266): truncations and alanine replacements
SSFYRLRFELRYRAERSKTFT [Peptide C1] gave a Counts/minute bound of 14571 Counts/minute.
Work on SSFYRLRFELRYRAERSKTFT [Peptide C17] yielded a Counts/minute bound of 15127 Counts/minute.
For SSFYRLRFELRYRAERSKTFT [Peptide C33], the Counts/minute bound was 14610 Counts/minute.

Same assay, conditions: Example 4, domain IV peptides, D11–D57, separate experiment: truncations and alanine replacements
In the case of GGSLAFGTLLCIAIVLRFKKT [Peptide D11], the Counts/minute bound was 20349 Counts/minute.
With GGSLAFGTLLCIAIVLRFKKT [Peptide D27] the Counts/minute bound was 21945 Counts/minute.
In the case of GGSLAFGTLLCIAIVLRFKKT [Peptide D43], the Counts/minute bound was 20385 Counts/minute.
LRFKKT [Peptide D42] gave a Counts/minute bound of 1958 Counts/minute.

Same assay, conditions: Example 5, fragments of the β-chain of the IL-6 receptor
With LTCNILTFGQLEQNVYGITIISGL [Peptide E11] the Counts/minute bound was 1816 Counts/minute.
In the case of SDKAPCITDWQQEDGTVHRTYLRG [Peptide E47], the Counts/minute bound was 2079 Counts/minute.

Same assay, conditions: receptor sequence taken 21 amino acid residues at a time
For AAGSHPSRWAGMGRRLLLRSV [Peptide A1], the “Initial screening of IL-6 receptor primary sequence for binding of IL-6 ligand” value (from here on “Initial screening”) was “active binding sequences”.
With GGSLAFGTLLCIAIVLRFKKT [Peptide D5] the “Initial screening” value was “active binding sequences”.
In the case of PRSTPSLTTKAVLLVRKFQNS [Peptide B1], the “Initial screening” value was “active binding sequences”.
With SSFYRLRFELRYRAERSKTFT [Peptide C1] the “Initial screening” value was “active binding sequences”.
